This is an account of results in publication PMC2811023 (Nucleic Acids Research, 2009).

B2: Staphylococcus aureus GatB (subunit B of the heterotrimeric tRNA-dependent amidotransferase GatCAB) (enzyme)
chain: MHFETVIGLEVHVELKTDSKMFSPSPAHFGAEPNSNTNVIDLAYPGVLPVVNKRAVDWAMRAAMALNMEIATESKFDRKNYFYPDNPKAYQISQFDQPIGENGYIDIEVDGETKRIGITRLHMEEDAGKSTHKGEYSLVDLNRQGTPLIEIVSEPDIRSPKEAYAYLEKLRSIIQYTGVSDVKMEEGSLRCDANISLRPYGQEKFGTKAELKNLNSFNYVRKGLEYEEKRQEEELLNGGEIGQETRRFDESTGKTILMRVKEGSDDYRYFPEPDIVPLYIDDAWKERVRQTIPELPDERKAKYVNELGLPAYDAHVLTLTKEMSDFFESTIEHGADVKLTSNWLMGGVNEYLNKNQVELLDTKLTPENLAGMIKLIEDGTMSSKIAKKVFPELAAKGGNAKQIMEDNGLVQISDEATLLKFVNEALDNNEQSVEDYKNGKGKAMGFLVGQIMKASKGQANPQLVNQLLKQELDKR

Experiment [1] deals with T1, Staphylococcus aureus GatA (subunit A of the heterotrimeric tRNA-dependent amidotransferase GatCAB) (Staphylococcus aureus, UniProt P63488 1-485).
T1 sequence: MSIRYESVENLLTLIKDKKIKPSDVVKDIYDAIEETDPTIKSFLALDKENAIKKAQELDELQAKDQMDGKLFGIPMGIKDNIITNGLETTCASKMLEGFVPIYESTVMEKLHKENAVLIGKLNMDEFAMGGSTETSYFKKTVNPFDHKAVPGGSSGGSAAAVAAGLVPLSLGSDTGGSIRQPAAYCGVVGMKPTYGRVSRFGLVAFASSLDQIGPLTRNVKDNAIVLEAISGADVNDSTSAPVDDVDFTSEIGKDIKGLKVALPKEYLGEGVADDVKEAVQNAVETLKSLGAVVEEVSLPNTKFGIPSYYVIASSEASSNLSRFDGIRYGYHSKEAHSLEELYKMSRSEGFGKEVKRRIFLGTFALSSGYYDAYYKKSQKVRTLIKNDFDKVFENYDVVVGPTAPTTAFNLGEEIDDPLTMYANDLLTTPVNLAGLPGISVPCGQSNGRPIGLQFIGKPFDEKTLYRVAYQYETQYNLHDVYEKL
Briefly: crystal structure.

The target in experiment [2] is B2. Briefly: crystal structure.

B1: Staphylococcus aureus GatC (subunit C of the heterotrimeric tRNA-dependent amidotransferase GatCAB) (natural protein)
chain: MTKVTREEVEHIANLARLQISPEETEEMANTLESILDFAKQNDSADTEGVEPTYHVLDLQNVLREDKAIKGIPQELALKNAKETEDGQFKVPTIMNEEDA
Take B1: the binding result in experiment [1] and in experiment [2] was “binds” throughout. On to B2, for which the binding result in experiment [1] is “binds”.
